Consider 10 molecules from patent US9057727B2, “Screening methods using G-protein coupled receptors and related compositions” (The General Hospital Corporation, priority 2007, dated 2015).

Ends that are not written are not given here. Peptide text beside a SMILES is read from it.

Experiment [1] has as its target T1, human PTHR, G protein-uncoupled conformation (R^0) (Homo sapiens, UniProt Q03431).
T1 construct: expressed in transfected cells; host or cells: COS-7, transient (Fugene-6)
T1 sequence (Q03431 27-593): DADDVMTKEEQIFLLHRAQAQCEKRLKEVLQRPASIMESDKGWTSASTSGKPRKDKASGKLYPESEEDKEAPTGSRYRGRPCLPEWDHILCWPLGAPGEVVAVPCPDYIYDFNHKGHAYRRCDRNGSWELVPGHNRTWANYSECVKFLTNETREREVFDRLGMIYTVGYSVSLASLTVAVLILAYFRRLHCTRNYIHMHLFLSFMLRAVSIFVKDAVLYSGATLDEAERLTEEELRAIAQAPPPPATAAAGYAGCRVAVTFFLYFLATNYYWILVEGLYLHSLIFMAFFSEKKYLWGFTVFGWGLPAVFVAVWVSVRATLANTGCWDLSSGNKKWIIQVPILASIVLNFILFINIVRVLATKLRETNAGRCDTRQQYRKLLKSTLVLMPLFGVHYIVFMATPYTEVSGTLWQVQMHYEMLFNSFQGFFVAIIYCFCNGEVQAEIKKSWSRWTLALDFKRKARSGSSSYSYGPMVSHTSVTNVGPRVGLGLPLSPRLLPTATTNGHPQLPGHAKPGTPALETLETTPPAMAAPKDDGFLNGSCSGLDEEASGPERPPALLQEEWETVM
The experiment in a line: Competition binding to R0 conformation of hPTHR (COS-7 membranes, GTPγS, 125I-PTH(1-34) tracer). To be noted: for screen human PIR R0 (% parent): parent PTHrP(1-28)NH; for R0:RG: Table 5, fold weaker affinity for R0 than RG. As to the method:
Membranes were prepared from COS-7 cells transfected with the hPTHR alone. GTPγS ([…]) was added to the binding reactions so as to functionally uncouple receptor-heterotrimeric G protein complexes, thus enriching for the R^0 (and R) conformations, relative to RG.
Reactions contained a total membrane protein concentration of 20 to 100 μg/mL, and a total radioactivity concentration of approximately 150,000 cpm/ml. Unlabeled peptide ligands and/or GTPγS (Sigma-Aldrich Inc. St. Louis, Mo.) were added to the reactions as indicated.
Membranes, tracer radioligand, and various concentrations of unlabeled ligands and/or GTPγS were incubated in the wells for 90 minutes, following which, the reaction plates were processed by rapid vacuum filtration to separate bound from free radioligand, as described above. […] For both radioligands, the non-specific binding was determined in reactions containing a saturating concentration of the unlabeled analog of the radioligand. The specifically bound radioactivity was calculated as a percent of the radioactivity specifically bound in the absence of a competing ligand or GTPγS.
To assess the capacities of various unlabeled peptide ligands to bind to the G protein-uncoupled and G protein-coupled PTHR conformations (R^0 and RG, respectively), membranes were prepared from transiently transfected COS-7 cells and the following assay conditions.

For experiment [2], the target named is T2, human PTHR, G protein-coupled conformation (RG) (Homo sapiens, UniProt Q03431).
T2 construct: expressed in transfected cells; host or cells: COS-7, transient (Fugene-6); membranes
T2 sequence (Q03431 27-593): T1 sequence (Q03431 27-593)
The experiment in a line: Competition binding to RG conformation of hPTHR (COS-7 membranes, GαsND, 125I-[Aib1,3,M]PTH(1-15) tracer). To be noted: parent PTHrP(1-28)NH.

The test system of experiment [3] is LLCPK1-B64 cells or SaOS-2 cells. The experiment in a line: cAMP screen of substituted PTHrP(1-28) analogs (% parent). The conditions noted are these: parent PTHrP(1-28)NH. It counts as cell-based. As to the method: Alanine substitution at position 18, 22, 25 and 26 increased activity in at least one cell type. These positions were further substituted to various types of amino acids, and cAMP activity was analyzed in LLCPK1-B64 cells (FIG. 27C) or SaOS-2 cells (FIG. 27D). Cells were treated with analogs at 3×10^−9M in the presence of IBMX for 30 minutes at room temperature. Responses for each analog were normalized to the response for the parent (native) PTHrP(1-28) peptide. Alanine substitutions were A^15 to A^17 (SEQ ID NO:152-154), A^18 (SEQ ID NO:34), A^19 to A^21 (SEQ ID NO:155-157), A^22 (SEQ ID NO:39), A^23 to A^25 (SEQ ID NO:158-160), A^26 (SEQ ID NO:46), and A^27 to A^28 (SEQ ID NO:161-162). Substitutions at position 18 were A^18 (SEQ ID NO: 34), G^18 (SEQ ID NO:163), S^18 (SEQ ID NO:35), M^18 (SEQ ID NO:36), L^18 (SEQ ID NO:164), F^18 (SEQ ID NO:37), N^18 (SEQ ID NO:165), E^18 (SEQ ID NO:38), and K^18 (SEQ ID NO:166). Substitutions at position 22 were A^22 (SEQ ID NO:39), G^22 (SEQ ID NO:167), and S^22 to K^22 (SEQ ID NO:40-45). Substitutions at position 26 were A^26 (SEQ ID NO:46), G^26 (SEQ ID NO:168), S^26 (SEQ ID NO:47), L^26 (SEQ ID NO:169), N^26 (SEQ ID NO:48), W^26 to E^26 (SEQ ID NO:170-171), and K^26 to R^26 (SEQ ID NO:49-50). Substitutions at position 25 were G^25 to S^25 (SEQ ID NO:172-173), L^25 (SEQ ID NO:51), N^25 (SEQ ID NO:174), W^25 (SEQ ID NO:52), E^25 (SEQ ID NO:175), and K^25 to R^25 (SEQ ID NO:53-54). […]

Consider “A18,26,L22-PTHrP(1-28) (AVSEHQLLHDKGKSIQDARRRLFLHALI-NH2) [A18, 26, L22-PTHrP(1-28)NH]”, for which the “screen human PIR R0 (% parent)” value in experiment [1] stood at 133 % parent. In addition, the “screen human PIR RG (% parent)” value in experiment [2] was 163 % parent. Moreover, the “screen cAMP (% parent)” value in experiment [3] is recorded as 252 % parent.
For the molecule “A18,N22,K26-PTHrP(1-28) (AVSEHQLLHDKGKSIQDARRRNFLHKLI-NH2) [A18, N22, K26-PTHrP(1-28)NH]”, in experiment [1], the “screen human PIR R0 (% parent)” value was 139 % parent. Moreover, the “screen human PIR RG (% parent)” value in experiment [2] worked out at 172 % parent. Further, in experiment [3], the “screen cAMP (% parent)” value is 326 % parent.
In the same order, the values of “E18,W22,A26-PTHrP(1-28) (AVSEHQLLHDKGKSIQDERRRWFLHALI-NH2) [E18, W22, A26-PTHrP(1-28)NH]” are 18.8 % parent, 116 % parent and 75 % parent.
In the case of “E18,S22,A26-PTHrP(1-28) (AVSEHQLLHDKGKSIQDERRRSFLHALI-NH2) [E18, S22, A26-PTHrP(1-28)NH]”, in experiment [1], the “screen human PIR R0 (% parent)” value is recorded as 31.9 % parent. Moreover, the “screen human PIR RG (% parent)” value in experiment [2] came to 132 % parent. Also, the “screen cAMP (% parent)” value in experiment [3] is listed as 119 % parent.
For the molecule “A18,26,N22-PTHrP(1-28) (AVSEHQLLHDKGKSIQDARRRNFLHALI-NH2) [A18, 26, N22-PTHrP(1-28)NH]”, the “screen human PIR R0 (% parent)” value in experiment [1] is 136 % parent. Further, in experiment [2], the “screen human PIR RG (% parent)” value turned out to be 161 % parent. Also, in experiment [3], the “screen cAMP (% parent)” value is 265 % parent.
Turning to `CSCC[C@H](NC(=O)[C@H](CC(C)C)NC(=O)[C@H](CCC(N)=O)NC(=O)[C@H](Cc1c[nH]cn1)NC(=O)[C@H](CCC(=O)O)NC(=O)[C@H](CO)NC(=O)[C@@H](NC(=O)[C@@H](N)CO)C(C)C)C(=O)N[C@@H](Cc1c[nH]cn1)C(=O)N[C@@H](CC(N)=O)C(=O)N[C@@H](CC(C)C)C(=O)NCC(=O)N[C@@H](CCCCN)C(=O)N[C@@H](Cc1c[nH]cn1)C(=O)N[C@@H](CC(C)C)C(=O)N[C@@H](CC(N)=O)C(=O)N[C@@H](CO)C(=O)N[C@@H](CCSC)C(=O)N[C@@H](CCC(=O)O)C(=O)N[C@@H](CCCNC(=N)N)C(=O)N[C@H](C(=O)N[C@@H](CCC(=O)O)C(=O)N[C@@H](Cc1c[nH]c2ccccc12)C(=O)N[C@@H](CC(C)C)C(=O)N[C@@H](CCCNC(=N)N)C(=O)N[C@@H](CCCCN)C(=O)N[C@@H](CCCCN)C(=O)N[C@@H](CC(C)C)C(=O)N[C@@H](CCC(N)=O)C(=O)N[C@@H](CC(=O)O)C(=O)N[C@H](C(=O)N[C@@H](Cc1c[nH]cn1)C(=O)N[C@@H](CC(N)=O)C(=O)N[C@@H](Cc1ccccc1)C(N)=O)C(C)C)C(C)C` [[His^5]hPTH(1-34)NH2] (H-SVSEHQLMHNLGKHLNSMERVEWLRKKLQDVHNF-NH2; N-terminus assumed), the “R0:RG” value in experiment [1] worked out at 160.
With “E18,L22,K26-PTHrP(1-28) (AVSEHQLLHDKGKSIQDERRRLFLHKLI-NH2) [E18, L22, K26-PTHrP(1-28)NH]”, in experiment [1], the “screen human PIR R0 (% parent)” value came out at 64.4 % parent. Further, the “screen human PIR RG (% parent)” value in experiment [2] is recorded as 152 % parent. Further, the “screen cAMP (% parent)” value in experiment [3] was 264 % parent.
As to `CSCC[C@H](NC(=O)[C@H](CC(C)C)NC(=O)[C@H](CCC(N)=O)NC(=O)[C@H](Cc1c[nH]cn1)NC(=O)[C@H](CCC(=O)O)NC(=O)[C@H](CO)NC(=O)[C@@H](NC(=O)[C@H](C)N)C(C)C)C(=O)N[C@@H](Cc1c[nH]cn1)C(=O)N[C@@H](CC(N)=O)C(=O)N[C@@H](CC(C)C)C(=O)NCC(=O)N[C@@H](CCCCN)C(=O)N[C@@H](Cc1c[nH]cn1)C(=O)N[C@@H](CC(C)C)C(=O)N[C@@H](C)C(=O)N[C@@H](CO)C(=O)N[C@H](C(=O)N[C@@H](CCC(=O)O)C(=O)N[C@@H](CCCNC(=N)N)C(=O)N[C@@H](CCSC)C(=O)N[C@@H](CCC(N)=O)C(=O)N[C@@H](Cc1c[nH]c2ccccc12)C(=O)N[C@@H](CC(C)C)C(=O)N[C@@H](CCCNC(=N)N)C(=O)N[C@@H](CCCCN)C(=O)N[C@@H](CCCCN)C(=O)N[C@@H](CC(C)C)C(=O)N[C@@H](CCC(N)=O)C(=O)N[C@@H](CC(=O)O)C(=O)N[C@H](C(=O)N[C@@H](Cc1c[nH]cn1)C(=O)N[C@@H](CC(N)=O)C(=O)N[C@@H](Cc1ccccc1)C(N)=O)C(C)C)C(C)C` [[His^5]rPTH(1-34)NH2] (H-AVSEHQLMHNLGKHLASVERMQWLRKKLQDVHNF-NH2; N-terminus assumed), the “R0:RG” value in experiment [1] was 138.
Take `CC[C@H](C)[C@H](NC(=O)[C@H](CCC(=O)O)NC(=O)[C@H](C)NC(=O)[C@@H](NC(=O)[C@H](C)N)C(C)C)C(=O)N[C@@H](CCC(N)=O)C(=O)N[C@@H](CC(C)C)C(=O)N[C@@H](CCSC)C(=O)N[C@@H](Cc1c[nH]cn1)C(=O)N[C@@H](CCC(N)=O)C(=O)N[C@@H](CCCNC(=N)N)C(=O)N[C@@H](C)C(=O)N[C@@H](CCCCN)C(=O)N[C@@H](Cc1c[nH]c2ccccc12)C(=O)N[C@@H](CC(C)C)C(=O)N[C@@H](CC(N)=O)C(=O)N[C@@H](CO)C(=O)N[C@@H](CCSC)C(=O)N[C@@H](CCCNC(=N)N)C(=O)N[C@@H](C)C(=O)N[C@H](C(=O)N[C@@H](CCC(=O)O)C(=O)N[C@@H](Cc1c[nH]c2ccccc12)C(=O)N[C@@H](CC(C)C)C(=O)N[C@@H](CCCNC(=N)N)C(=O)N[C@@H](CCCCN)C(=O)N[C@@H](CCCCN)C(=O)N[C@@H](CC(C)C)C(=O)N[C@@H](CCC(N)=O)C(=O)N[C@@H](CC(=O)O)C(=O)N[C@H](C(=O)N[C@@H](Cc1c[nH]cn1)C(=O)N[C@@H](CC(N)=O)C(=O)N[C@@H](Cc1ccccc1)C(=O)O)C(C)C)C(C)C` [A20,Mc-PTH(1-34)OH, A^20,Mc-PTH(1-34)OH] (H-AVAEIQLMHQRAKWLNSMRAVEWLRKKLQDVHNF-OH; N-terminus assumed): the R0/RG ratio in experiment [1] (human PTH receptor on COS-7 cell membranes) worked out at 80.
As to `CC[C@H](C)[C@H](NC(=O)[C@H](CCC(=O)O)NC(=O)[C@H](CO)NC(=O)[C@@H](NC(=O)[C@H](C)N)C(C)C)C(=O)N[C@@H](CCC(N)=O)C(=O)N[C@@H](CC(C)C)C(=O)N[C@@H](CCSC)C(=O)N[C@@H](Cc1c[nH]cn1)C(=O)N[C@@H](CC(N)=O)C(=O)N[C@@H](CC(C)C)C(=O)NCC(=O)N[C@@H](CCCCN)C(=O)N[C@@H](Cc1c[nH]cn1)C(=O)N[C@@H](CC(C)C)C(=O)N[C@@H](C)C(=O)N[C@@H](CO)C(=O)N[C@H](C(=O)N[C@@H](CCC(=O)O)C(=O)N[C@@H](CCCNC(=N)N)C(=O)N[C@@H](CCSC)C(=O)N[C@@H](CCC(N)=O)C(=O)N[C@@H](Cc1c[nH]c2ccccc12)C(=O)N[C@@H](CC(C)C)C(=O)N[C@@H](CCCNC(=N)N)C(=O)N[C@@H](CCCCN)C(=O)N[C@@H](CCCCN)C(=O)N[C@@H](CC(C)C)C(=O)N[C@@H](CCC(N)=O)C(=O)N[C@@H](CC(=O)O)C(=O)N[C@H](C(=O)N[C@@H](Cc1c[nH]cn1)C(=O)N[C@@H](CC(N)=O)C(=O)N[C@@H](Cc1ccccc1)C(N)=O)C(C)C)C(C)C` [rPTH(1-34)NH2, reference compound], the “R0:RG” value in experiment [1] is given as 7.
